These are literature values, as cited in publication PMC10653114.

Data set [1] has as its target Lys13 (UniProt position 14, QIAEFKEAFSL). Particulars: 298 K; Conc. 0.10 (unit not given; K+/Cl–); apo (Ca2+-free) calmodulin, per the Supplemental Methods, which build an apo model.
The target in data set [2] is Lys21 (UniProt position 22, FSLFDKDGDGT). Particulars: 298 K; Conc. 0.10 (unit not given; K+/Cl–); apo (Ca2+-free) calmodulin, per the Supplemental Methods, which build an apo model.
Data set [3] has as its target Lys30 (UniProt position 31, GTITTKELGTV). As to conditions: 298 K; Conc. 0.10 (unit not given; K+/Cl–); apo (Ca2+-free) calmodulin, per the Supplemental Methods, which build an apo model.
In data set [4] the target is Lys75 (UniProt position 76, TMMARKMKDTD). As to conditions: 298 K; Conc. 0.10 (unit not given; K+/Cl–); apo (Ca2+-free) calmodulin, per the Supplemental Methods, which build an apo model.
For data set [5], the target named is Lys77 (UniProt position 78, MARKMKDTDSE). Particulars: 298 K; Conc. 0.10 (unit not given; K+/Cl–); apo (Ca2+-free) calmodulin, per the Supplemental Methods, which build an apo model.
Data set [6] addresses Lys94 (UniProt position 95, FRVFDKDGNGY). As to conditions: 298 K; Conc. 0.10 (unit not given; K+/Cl–); apo (Ca2+-free) calmodulin, per the Supplemental Methods, which build an apo model.
Data set [7] deals with Lys19 (UniProt position 259, LHITEKLEVLA). In words: NMR (per the title of cited ref 99). Particulars: 298 K; Conc. 0.10 (unit not given; K+/Cl–).
In data set [8] the target is Lys25 (UniProt position 265, LEVLAKAYSVQ). In words: NMR (per the title of cited ref 99). Particulars: 298 K; Conc. 0.10 (unit not given; K+/Cl–).
Data set [9] addresses Lys33 (UniProt position 273, SVQGDKWRALG). In words: NMR (per the title of cited ref 99). Particulars: 298 K; Conc. 0.10 (unit not given; K+/Cl–).
The target in data set [10] is Lys41 (UniProt position 281, ALGYAKAINAL). In words: NMR (per the title of cited ref 99). Particulars: 298 K; Conc. 0.10 (unit not given; K+/Cl–).
For data set [11], the target named is Lys47 (UniProt position 287, AINALKSFHKP). In words: NMR (per the title of cited ref 99). As to conditions: 298 K; Conc. 0.10 (unit not given; K+/Cl–).
In data set [12] the target is Lys51 (UniProt position 291, LKSFHKPVTSY). In words: NMR (per the title of cited ref 99). Particulars: 298 K; Conc. 0.10 (unit not given; K+/Cl–).
In data set [13] the target is Lys67 (UniProt position 307, IPGIGKRMAEK). In words: NMR (per the title of cited ref 99). Particulars: 298 K; Conc. 0.10 (unit not given; K+/Cl–).
The target of data set [14] is Lys72 (UniProt position 312, KRMAEKIIEIL). In words: NMR (per the title of cited ref 99). As to conditions: 298 K; Conc. 0.10 (unit not given; K+/Cl–).
Data set [15] addresses Lys8 (UniProt position 248, QPSSQKATNHN). In words: NMR (per the title of cited ref 99). As to conditions: 298 K; Conc. 0.10 (unit not given; K+/Cl–).
Data set [16] concerns the target Lys84 (UniProt position 324, SGHLRKLDHIS). In words: NMR (per the title of cited ref 99). Particulars: 298 K; Conc. 0.10 (unit not given; K+/Cl–).
In data set [17] the target is Asp101 (UniProt position 119, KKIVSDGNGMN). In words: NMR (per the title of cited ref 36). As to conditions: 300 K; Conc. 0.10 (unit not given; Na+/Cl–).
Data set [18] deals with Asp119 (UniProt position 137, RCKGTDVQAWI). In words: NMR (per the title of cited ref 36). As to conditions: 300 K; Conc. 0.10 (unit not given; Na+/Cl–).
In data set [19] the target is Asp18 (UniProt position 36, KRHGLDNYRGY). Kind of data set: NMR (per the title of cited ref 36). As to conditions: 300 K; Conc. 0.10 (unit not given; Na+/Cl–).
For data set [20], the target named is Asp48 (UniProt position 66, TNRNTDGSTDY). Kind of data set: NMR (per the title of cited ref 36). As to conditions: 300 K; Conc. 0.10 (unit not given; Na+/Cl–).
The target of data set [21] is Asp52 (UniProt position 70, TDGSTDYGILQ). Kind of data set: NMR (per the title of cited ref 36). Particulars: 300 K; Conc. 0.10 (unit not given; Na+/Cl–).
In data set [22] the target is Asp66 (UniProt position 84, RWWCNDGRTPG). In words: NMR (per the title of cited ref 36). As to conditions: 300 K; Conc. 0.10 (unit not given; Na+/Cl–).
Data set [23] has as its target Asp87 (UniProt position 105, ALLSSDITASV). In words: NMR (per the title of cited ref 36). As to conditions: 300 K; Conc. 0.10 (unit not given; Na+/Cl–).
Data set [24] has as its target Glu35 (UniProt position 53, CAAKFESNFNT). In words: NMR (per the title of cited ref 36). As to conditions: 300 K; Conc. 0.10 (unit not given; Na+/Cl–).
Data set [25] concerns the target Glu7 (UniProt position 25, VFGRCELAAAM). In words: NMR (per the title of cited ref 36). Particulars: 300 K; Conc. 0.10 (unit not given; Na+/Cl–).
Data set [26] deals with Lys116 (UniProt position 134, WRNRCKGTDVQ). Kind of data set: NMR (per the title of cited ref 36). Particulars: 300 K; Conc. 0.10 (unit not given; Na+/Cl–).
Data set [27] concerns the target Lys13 (UniProt position 31, LAAAMKRHGLD). Kind of data set: NMR (per the title of cited ref 36). Particulars: 300 K; Conc. 0.10 (unit not given; Na+/Cl–).
Data set [28] deals with Lys33 (UniProt position 51, WVCAAKFESNF). Kind of data set: NMR (per the title of cited ref 36). As to conditions: 300 K; Conc. 0.10 (unit not given; Na+/Cl–).
For data set [29], the target named is Lys96 (UniProt position 114, SVNCAKKIVSD). In words: NMR (per the title of cited ref 36). As to conditions: 300 K; Conc. 0.10 (unit not given; Na+/Cl–).
Data set [30] has as its target Lys97 (UniProt position 115, VNCAKKIVSDG). Kind of data set: NMR (per the title of cited ref 36). Particulars: 300 K; Conc. 0.10 (unit not given; Na+/Cl–).
The target of data set [31] is Asp61 (UniProt position 435, STVTQDGSAVT). As to conditions: 298 K; Conc. 0.10 (unit not given; K+/Cl–).

In general, pKa refers to the negative logarithm of the acid dissociation constant. Take “Calmodulin (apo) (Homo sapiens (as modelled in the article; source species of the measured sample not stated))”: the pKa in [1] is reported as 10.23 ± 0.10; in data set [2], 10.55 ± 0.10; in data set [3], 10.55 ± 0.10; in [4] it was 9.87 ± 0.10; in data set [5], 10.55 ± 0.10; in data set [6], 10.55 ± 0.10.

As to “DNA polymerase lambda, lyase (8 kDa) domain (Homo sapiens)”, the pKa in [7] is on record as 10.07 ± 0.14; in data set [8] it was 10.23 ± 0.14; in data set [9] it was 10.07 ± 0.14; in data set [10], 10.01 ± 0.14; in data set [11], 10.65 ± 0.14; in [12] it was 10.26 ± 0.14. Moreover, the pKa in [13] is recorded as 10.16 ± 0.14; in data set [14] it was 9.58 ± 0.14; in [15] it was 10.27 ± 0.14; in data set [16], 10.27 ± 0.14.

On to “Hen egg-white lysozyme (HEWL) (Gallus gallus)”, for which the pKa in data set [17] is 4.09 ± 0.07; in data set [18] it was 3.2 ± 0.09; in data set [19], 2.66 ± 0.08; in data set [20], 1.60 ± 0.4; in [21], 3.68 ± 0.08; in [22] it was 0.90 ± 0.5. In addition, the pKa in [23] was 2.07 ± 0.15; in [24], 6.20 ± 0.10; in data set [25] it was 2.85 ± 0.25; in data set [26], 10.40 ± 0.10; in [27], 10.50 ± 0.10; in [28], 10.60 ± 0.10. The values for the pKa in [29] and in [30] were 10.80 ± 0.10 and 10.30 ± 0.10, respectively.

Take “Highly charge-depleted protein (PDB 6QFS), S61D variant (Cellulomonas fimi (parent domain; not stated in the article); S61D (on the 6QFS charge-depleted background; background substitutions not stated))”: the pKa in data set [31] is listed as 4.15 ± 0.01.
